From article PMC10424212

Settings: ubiquitination at K57

Substance	degradation_or_half_life	enzymatic_activity
ALKBH5: K57R	increases	–
ALKBH5: K57R (purified FLAG-tagged protein, in vitro demethylation assay)	–	no change
